Laboratory results published in patent US20180298070A1, “PEPTIDE COMPOUND” (Takeda Pharmaceutical Company Limited, published 2018).
Non-standard residues stand in square brackets, D forms with d. Groups on a side chain read outwards from the residue. Primed or numbered codes have the meaning given here. No end group written: not given here. *: point of attachment. NMeY = CN[C@@H](Cc1ccc(O)cc1)C(=O)O; αMeF = C[C@](N)(Cc1ccccc1)C(=O)O; Myristoyl = CCCCCCCCCCCCCC(=O)*; Undecanoyl = CCCCCCCCCCC(=O)*; Lauroyl = CCCCCCCCCCCC(=O)*; Decanoyl = CCCCCCCCCC(=O)*; dIva = CC[C@@](C)(N)C(=O)O; Iva = CC[C@](C)(N)C(=O)O; PEG2′ = not defined here; PEG4′ = not defined here; Hexanoyl = CCCCCC(=O)*; Aib = CC(C)(N)C(=O)O

T1: human GLP-1R (human), P43220
T1 chain: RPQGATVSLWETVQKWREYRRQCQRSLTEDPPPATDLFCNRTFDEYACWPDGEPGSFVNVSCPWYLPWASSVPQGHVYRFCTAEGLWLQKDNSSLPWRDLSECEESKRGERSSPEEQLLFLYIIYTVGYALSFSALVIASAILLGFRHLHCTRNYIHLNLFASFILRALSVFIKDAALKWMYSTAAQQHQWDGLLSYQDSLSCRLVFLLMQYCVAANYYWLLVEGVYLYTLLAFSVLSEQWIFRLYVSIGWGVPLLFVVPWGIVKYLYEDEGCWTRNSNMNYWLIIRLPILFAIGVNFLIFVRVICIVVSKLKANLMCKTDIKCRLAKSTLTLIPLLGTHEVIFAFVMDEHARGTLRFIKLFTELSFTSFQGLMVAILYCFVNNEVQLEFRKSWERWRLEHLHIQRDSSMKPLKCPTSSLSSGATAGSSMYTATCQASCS

T2: human GIPR (human), P48546
T2 chain: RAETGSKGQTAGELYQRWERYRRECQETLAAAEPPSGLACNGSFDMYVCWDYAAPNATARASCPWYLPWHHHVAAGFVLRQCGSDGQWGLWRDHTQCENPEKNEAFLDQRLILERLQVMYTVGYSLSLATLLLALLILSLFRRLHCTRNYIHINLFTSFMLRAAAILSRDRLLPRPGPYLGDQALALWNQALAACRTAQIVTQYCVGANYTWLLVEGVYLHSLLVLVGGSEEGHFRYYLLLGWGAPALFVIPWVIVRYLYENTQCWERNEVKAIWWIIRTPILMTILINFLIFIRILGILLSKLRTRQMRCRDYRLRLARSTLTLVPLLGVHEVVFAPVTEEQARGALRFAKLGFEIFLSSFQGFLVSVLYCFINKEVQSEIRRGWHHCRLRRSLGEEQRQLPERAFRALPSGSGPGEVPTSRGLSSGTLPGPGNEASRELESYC


How the values were obtained:
[1] = target: T1, human GLP-1R (human), P43220
[2] = target: T2, human GIPR (human), P48546

| Binder | Agonist activity (EC50, M) [1] [M] | Agonist activity (EC50, M) [2] [M] |
| --- | --- | --- |
| Me-Y[Aib]EGTFISDYSIALDRIAQQNFVNW[Iva]LAQRPSSGAPPPSR (not fully specified (residue 1, C-terminus); ends and bridges not checked) [Compound 133] | > 1e-06 | 1.7e-12 |
| Y[Aib]EGTFISDYSK([PEG2′-Lauroyl])ALDRIAQQDFVNWLLAQRPSSGAPPPSR (ends and bridges not checked) [Compound 184] | 3e-08 | 3.6e-12 |
| Y[Aib]EGTFISDYSK([PEG(2)-Lauroyl])ALDRIHQQDFVNWLLAQRPSSGAPPPS (ends and bridges not checked) [Compound 175] | > 1e-06 | 3.5e-12 |
| Me-Y[Aib]EGTFISDYSIALDRIAQ[Aib]D[αMeF]VNWLLAQRPSSGAPPPSR (not fully specified (residue 1, C-terminus); ends and bridges not checked) [Compound 135] | > 1e-06 | 1.8e-12 |
| Ac-Y[Aib]EGTFISDYSIALDRIAQ[Aib]S[αMeF]VNW[Iva]LAQRPSSGAPPPSR (ends and bridges not checked) [Compound 155] | > 1e-06 | 1.7e-12 |
| Y[Aib]EGTFISDYSK([PEG2′-Undecanoyl])ALDRIAQQDFVNWLLAQRPSSGAPPPSR (ends and bridges not checked) [Compound 183] | 3.3e-08 | 3.4e-12 |
| Y[Aib]EGTFISDYSK([PEG2′-Lauroyl])ALDR[Aib]AQQD[αMeF]VNWLLAQRPSSGAPPPS (not fully specified (C-terminus); ends and bridges not checked) [Compound 213] | 5.4e-08 | 3.1e-12 |
| Y[Aib]EGTFISDYSK([PEG2′-Lauroyl])ALDR[Aib]AQ[Aib]NFVNW[Iva]LAQRPSSGAPPPS (not fully specified (C-terminus); ends and bridges not checked) [Compound 211] | 2.6e-08 | 3.4e-12 |
| [NMeY][Aib]EGTFISDYSI[dIva]LDRIAQQSFVNWLLAQRPSSGAPPPSR (not fully specified (N-terminus, C-terminus); ends and bridges not checked) [Compound 138] | > 1e-06 | 2.2e-12 |
| [NMeY][Aib]EGTFISDYSIALDRIHQ[Aib]NFVNWLLAQRPSSGAPPPSR (not fully specified (N-terminus, C-terminus); ends and bridges not checked) [Compound 142] | > 1e-06 | 2.3e-12 |
| [NMeY][Aib]EGTFISDYSIALDRIHQQD[αMeF]VNWLLAQRPSSGAPPPSR (not fully specified (N-terminus, C-terminus); ends and bridges not checked) [Compound 141] | > 1e-06 | 1.9e-12 |
| Y[Aib]EGTFISDYSK([PEG(2)-Lauroyl])ALDRIHQ[Aib]NFVNWLLAQRPSSGAPPPS (ends and bridges not checked) [Compound 209] | > 1e-06 | 4.3e-12 |
| Y[Aib]EGTVVSLYSI[Aib]LDKQAQ[Aib]EFVKWLLKGK([PEG(2)-Pal]) (ends and bridges not checked) [Compound 162] | > 1e-06 | 2.7e-10 |
| Me-Y[Aib]EGTFISDYSI[dIva]LDRIHQ[Aib]NFVNW[Iva]LAQRPSSGAPPPSR (not fully specified (residue 1, C-terminus); ends and bridges not checked) [Compound 147] | > 1e-06 | 1.5e-12 |
| Y[Aib]EGTFISDYSK([PEG2′-Myristoyl])ALDRIAQQDFVNWLLAQRPSSGAPPPSR (ends and bridges not checked) [Compound 186] | 1.3e-08 | 6.4e-12 |
| Ac-Y[Aib]EGTFISDYSIALDR[Aib]HQ[Aib]NFVNW[Iva]LAQRPSSGAPPPSR (ends and bridges not checked) [Compound 156] | > 1e-06 | 4.8e-12 |
| Y[Aib]EGTFISDYSK([PEG(2)-Pal])ALDRIHQQDFVNWLLAQRPSSGAPPPS (ends and bridges not checked) [Compound 172] | > 1e-06 | 2e-12 |
| [NMeY][Aib]EGTFISDYSI[dIva]LDRIHQQDFVNWLLAQRPSSGAPPPSR (not fully specified (N-terminus, C-terminus); ends and bridges not checked) [Compound 144] | > 1e-06 | 2.2e-12 |
| Y[Aib]EGTFISDYSK([PEG(2)-Lauroyl])ALDRIAQQDFVNWLLAQRPSSGAPPPS (ends and bridges not checked) [Compound 192] | 1.5e-08 | 6.5e-12 |
| Y[Aib]EGTFISDYSK([PEG2′-Lauroyl])ALDRIHQ[Aib]N[αMeF]VNW[Iva]LAQRPSSGAPPPS (not fully specified (C-terminus); ends and bridges not checked) [Compound 216] | 1.5e-07 | 4.8e-12 |
| Y[Aib]EGTFISDYSK([PEG(2)-Lauroyl])ALDRIHQQD[αMeF]VNWLLAQRPSSGAPPPS (ends and bridges not checked) [Compound 208] | > 1e-06 | 6.1e-12 |
| Y[Aib]EGTFISDYSK([PEG2′-Decanoyl])ALDRIAQQDFVNWLLAQRPSSGAPPPSR (ends and bridges not checked) [Compound 182] | 4.8e-08 | 3.3e-12 |
| Y[Aib]EGTFISDYSK([PEG(4)-Pal])ALDRIAQQDFVNWLLAQRPSSGAPPPSR (ends and bridges not checked) [Compound 190] | > 1e-06 | 2.1e-11 |
| Y[Aib]EGTFISDYSK([PEG(2)-Lauroyl])[dIva]LDRIAQQDFVNWLLAQRPSSGAPPPS (ends and bridges not checked) [Compound 206] | > 1e-06 | 2.1e-11 |
| Y[Aib]EGTFISDYSK([PEG(2)-Hexanoyl])ALDRIHQQDFVNWLLAQRPSSGAPPPS (ends and bridges not checked) [Compound 174] | > 1e-06 | 4.2e-12 |
| Y[Aib]EGTFISDYSK([PEG4′-Lauroyl])ALDRIAQQDFVNWLLAQRPSSGAPPPSR (ends and bridges not checked) [Compound 189] | 2.7e-08 | 6.8e-12 |
| Y[Aib]EGTFISDYSK([PEG(2)-Lauroyl])ALDRIAQQD[αMeF]VNWLLAQRPSSGAPPPS (ends and bridges not checked) [Compound 202] | 1.8e-07 | 4.6e-12 |
| Y[Aib]EGTFISDYSK([PEG(2)-Lauroyl])ALDR[Aib]AQQDFVNWLLAQRPSSGAPPPSR (ends and bridges not checked) [Compound 198] | 2.8e-08 | 4.5e-12 |
